Patent CN112830969A (JIANGSU NOVOMAB BIOPHARMACEUTICALS INC, dated 2021)

B1: 人源化抗体HA1LA1 (antibody, human IgG1, kappa, V domains shown)
VH: QVQLVESGGGVVQPGRSLRLSCAASGFTFSTYGVHWVRQAPGKGLEWVAVIWNGGNTDYNAAFISRFTISRDNSKNTLYLQMNSLRAEDTAVYYCARNRRGGGFGMDYWGQGTLVTVSS
VL: DIVMTQSPDSLAVSLGERATINCKSSQSLLNGGIQKNYLTWYQQKPGQPPKLLIYWASTRESGVPDRFSGSGSGTDFTLTISSLQAEDVAVYYCQNAYTYPFTFGQGTKLEIKR
notes: also called Claudin18.2单抗对照
B2: 对照抗体(来自专利CN20148000912) (antibody, V domains shown)
VH: QIQLVQSGPELKKPGETVKISCKASGYTFTNYGMNWVKQAPGKGLKWMGWINTNTGEPTYAEEFKGRFAFSLETSASTAYLQINNLKNEDTATYFCARLGFGNAMDYWGQGTSVTVSS
VL: DIVMTQSPSSLTVTAGEKVTMSCKSSQSLLNSGNQKNYLTWYQQKPGQPPKLLIYWASTRESGVPDRFTGSGSGTDFTLTISSVQAEDLAVYYCQNDYSYPLTFGAGTKLELK

Legend:
人Claudin18.2 (过表达细胞) [1] = biological target: T1, 人Claudin18.2 (过表达细胞) (human, UniProt P56856-2 1-261); experiment: cell-based or functional assay
[2] = biological target: T2, 人Claudin18.2-His重组蛋白(Kactus,Cat.CLD-HE1821) (human, UniProt P56856-2 1-261, limits assumed); experiment: ELISA, human Claudin18.2-His coated
T2 construct: Bought protein; also called Claudin18.2重组蛋白; not shown: His tag

人Claudin18.1 (过表达细胞) = biological target: T3, 人Claudin18.1 (过表达细胞) (human, UniProt P56856 1-261); experiment: cell ELISA on 293 cells transfected with human Claudin18.1
T3 construct: whole, on cells; also called CLDN18.1; Caludin18.1

人Claudin18.2 (过表达细胞) [3] = biological target: T1, 人Claudin18.2 (过表达细胞); experiment: cell ELISA on 293 cells transfected with human Claudin18.2

| Binder | ADCC活性 EC50 (靶细胞的裂解百分比, LDH; NUGC4-Claudin18.2靶细胞, NK92效应细胞) (人Claudin18.2 (过表达细胞) [1]) | EC50 [2] | binding result (人Claudin18.1 (过表达细胞)) | EC50 (人Claudin18.2 (过表达细胞) [3]) |
| --- | --- | --- | --- | --- |
| B1 | 0.0126 nM | 0.49 µg/mL | no binding | 0.028 µg/mL |
| B2 | 0.0575 nM | – | no binding | 0.119 µg/mL |
